Here are results for 10 molecules from US9937235B2, “Lipidated peptides as anti-obesity agents” (USTAV ORGANICKE CHEMIE A BIOCHEMIE AKADEMIE VED CR, V.V.I, priority 2012, dated 2018).

Where a SMILES comes first, the peptide text is derived from it. Where no end group is shown, it is not given here. [ ]: non-standard residue; d: D form. The star is where a group is joined. Palmitoyl = CCCCCCCCCCCCCCCC(=O)*; Myristoyl = CCCCCCCCCCCCCC(=O)*; Decanoyl = CCCCCCCCCC(=O)*; Nle = CCCC[C@H](N)C(=O)O; Octanoyl = CCCCCCCC(=O)*

B1: analog no. 51 (peptide)
peptide: TPDINPAWYASRGIRPVGRF-NH2
B2: analog no. 57 (peptide)
peptide: Palmitoyl-SRTHRHSMEIRTPDINPAWYASRGIRPVGRF-NH2
B3: analog no. 37 (peptide)
peptide: Myristoyl-[code f][code r]GVPRIGRGTYWAPNIDPT-NH2
B4: analog no. 60 (peptide)
peptide: Myristoyl-SRAHQHSMETRTPDINPAWYTGRGIRPVGRF-NH2
SMILES: CCCCCCCCCCCCCC(=O)N[C@@H](CO)C(=O)N[C@@H](CCCNC(=N)N)C(=O)N[C@@H](C)C(=O)N[C@@H](Cc1c[nH]cn1)C(=O)N[C@@H](CCC(N)=O)C(=O)N[C@@H](Cc1c[nH]cn1)C(=O)N[C@@H](CO)C(=O)N[C@@H](CCSC)C(=O)N[C@@H](CCC(=O)O)C(=O)N[C@H](C(=O)N[C@@H](CCCNC(=N)N)C(=O)N[C@H](C(=O)N1CCC[C@H]1C(=O)N[C@@H](CC(=O)O)C(=O)N[C@H](C(=O)N[C@@H](CC(N)=O)C(=O)N1CCC[C@H]1C(=O)N[C@@H](C)C(=O)N[C@@H](Cc1c[nH]c2ccccc12)C(=O)N[C@@H](Cc1ccc(O)cc1)C(=O)N[C@H](C(=O)NCC(=O)N[C@@H](CCCNC(=N)N)C(=O)NCC(=O)N[C@H](C(=O)N[C@@H](CCCNC(=N)N)C(=O)N1CCC[C@H]1C(=O)N[C@H](C(=O)NCC(=O)N[C@@H](CCCNC(=N)N)C(=O)N[C@@H](Cc1ccccc1)C(N)=O)C(C)C)[C@@H](C)CC)[C@@H](C)O)[C@@H](C)CC)[C@@H](C)O)[C@@H](C)O
B5: analog no. 61 (peptide)
peptide: Palmitoyl-SRAHQHSMETRTPDINPAWYTGRGIRPVGRF-NH2
SMILES: CCCCCCCCCCCCCCCC(=O)N[C@@H](CO)C(=O)N[C@@H](CCCNC(=N)N)C(=O)N[C@@H](C)C(=O)N[C@@H](Cc1c[nH]cn1)C(=O)N[C@@H](CCC(N)=O)C(=O)N[C@@H](Cc1c[nH]cn1)C(=O)N[C@@H](CO)C(=O)N[C@@H](CCSC)C(=O)N[C@@H](CCC(=O)O)C(=O)N[C@H](C(=O)N[C@@H](CCCNC(=N)N)C(=O)N[C@H](C(=O)N1CCC[C@H]1C(=O)N[C@@H](CC(=O)O)C(=O)N[C@H](C(=O)N[C@@H](CC(N)=O)C(=O)N1CCC[C@H]1C(=O)N[C@@H](C)C(=O)N[C@@H](Cc1c[nH]c2ccccc12)C(=O)N[C@@H](Cc1ccc(O)cc1)C(=O)N[C@H](C(=O)NCC(=O)N[C@@H](CCCNC(=N)N)C(=O)NCC(=O)N[C@H](C(=O)N[C@@H](CCCNC(=N)N)C(=O)N1CCC[C@H]1C(=O)N[C@H](C(=O)NCC(=O)N[C@@H](CCCNC(=N)N)C(=O)N[C@@H](Cc1ccccc1)C(N)=O)C(C)C)[C@@H](C)CC)[C@@H](C)O)[C@@H](C)CC)[C@@H](C)O)[C@@H](C)O
B6: analog no. 56 (peptide)
peptide: Myristoyl-SRTHRHSMEIRTPDINPAWYASRGIRPVGRF-NH2
SMILES: CCCCCCCCCCCCCC(=O)N[C@@H](CO)C(=O)N[C@@H](CCCNC(=N)N)C(=O)N[C@H](C(=O)N[C@@H](Cc1c[nH]cn1)C(=O)N[C@@H](CCCNC(=N)N)C(=O)N[C@@H](Cc1c[nH]cn1)C(=O)N[C@@H](CO)C(=O)N[C@@H](CCSC)C(=O)N[C@@H](CCC(=O)O)C(=O)N[C@H](C(=O)N[C@@H](CCCNC(=N)N)C(=O)N[C@H](C(=O)N1CCC[C@H]1C(=O)N[C@@H](CC(=O)O)C(=O)N[C@H](C(=O)N[C@@H](CC(N)=O)C(=O)N1CCC[C@H]1C(=O)N[C@@H](C)C(=O)N[C@@H](Cc1c[nH]c2ccccc12)C(=O)N[C@@H](Cc1ccc(O)cc1)C(=O)N[C@@H](C)C(=O)N[C@@H](CO)C(=O)N[C@@H](CCCNC(=N)N)C(=O)NCC(=O)N[C@H](C(=O)N[C@@H](CCCNC(=N)N)C(=O)N1CCC[C@H]1C(=O)N[C@H](C(=O)NCC(=O)N[C@@H](CCCNC(=N)N)C(=O)N[C@@H](Cc1ccccc1)C(N)=O)C(C)C)[C@@H](C)CC)[C@@H](C)CC)[C@@H](C)O)[C@@H](C)CC)[C@@H](C)O
B7: analog no. 30 (peptide)
peptide: SHQRPADTHWYPRG[Nle]FPTIGRITARNGEVSR
notes: printed without a C-terminal amide
B8: analog no. 53 (peptide)
peptide: Decanoyl-TPDINPAWYASRGIRPVGRF-NH2
SMILES: CCCCCCCCCC(=O)N[C@H](C(=O)N1CCC[C@H]1C(=O)N[C@@H](CC(=O)O)C(=O)N[C@H](C(=O)N[C@@H](CC(N)=O)C(=O)N1CCC[C@H]1C(=O)N[C@@H](C)C(=O)N[C@@H](Cc1c[nH]c2ccccc12)C(=O)N[C@@H](Cc1ccc(O)cc1)C(=O)N[C@@H](C)C(=O)N[C@@H](CO)C(=O)N[C@@H](CCCNC(=N)N)C(=O)NCC(=O)N[C@H](C(=O)N[C@@H](CCCNC(=N)N)C(=O)N1CCC[C@H]1C(=O)N[C@H](C(=O)NCC(=O)N[C@@H](CCCNC(=N)N)C(=O)N[C@@H](Cc1ccccc1)C(N)=O)C(C)C)[C@@H](C)CC)[C@@H](C)CC)[C@@H](C)O
B9: analog no. 52 (peptide)
peptide: Octanoyl-TPDINPAWYASRGIRPVGRF-NH2
SMILES: CCCCCCCC(=O)N[C@H](C(=O)N1CCC[C@H]1C(=O)N[C@@H](CC(=O)O)C(=O)N[C@H](C(=O)N[C@@H](CC(N)=O)C(=O)N1CCC[C@H]1C(=O)N[C@@H](C)C(=O)N[C@@H](Cc1c[nH]c2ccccc12)C(=O)N[C@@H](Cc1ccc(O)cc1)C(=O)N[C@@H](C)C(=O)N[C@@H](CO)C(=O)N[C@@H](CCCNC(=N)N)C(=O)NCC(=O)N[C@H](C(=O)N[C@@H](CCCNC(=N)N)C(=O)N1CCC[C@H]1C(=O)N[C@H](C(=O)NCC(=O)N[C@@H](CCCNC(=N)N)C(=O)N[C@@H](Cc1ccccc1)C(N)=O)C(C)C)[C@@H](C)CC)[C@@H](C)CC)[C@@H](C)O

The test system of one test is fasted C57BL/6 mice. The test is described as follows: Food intake in fasted mice after SC administration. The format is in vivo, mouse. Particulars: fasted C57BL/6 mice, 5 mg/kg SC, 45 min. The protocol:
Male C57BL/6 mice (An Lab, Prague 4) were bred in the accredited animal facility in the Institute of Organic Chemistry and Biochemistry, Czech Academy of Sciences, Prague, at the Institute of Molecular Genetics, Prague 4, at the temperature of 22±2° C. with access to food and water ad libitum. The day/night cycle was 12/12 hours (light turned on at 6:00 am). Animals were treated according to the Animal Protection Act (Act No. 246/1992). The males were fed standard chow diet St-1 (Mlýn Kocanda, Praha, Czech Republic) which contained 66% saccharides, 25% proteins and 9% lipids with a caloric value of 3.4 kcal/g.
The food was withdrawn 17 hours prior to injection of lipidated peptide and free access to water was maintained. The administration of saline, PrRP or lipidated analogs was performed either by SC injection at doses of 1-10 mg/kg (volume 0.2 ml/mouse), or by ICV using infusion pump (cannulae were inserted into the third brain ventricle 4 days before the experiment following the procedure of Maixnerová et al. (Maixnerová et al., 2011)). The single dose of peptide was 4 nmol/mouse (5 μl/mouse).
Fifteen minutes after the lipidated peptide administration, the mice were given pre-weighed food. The food was then weighed every 30 minutes for 5-10 hours. The administration of every dose was performed at least twice and one group of mice consisted of at least 6 mice. The results were presented as % of food intake as compared with the control group injected with saline.
Statistical evaluation was performed using program Graph-Pad Prism Software (San Diego, Calif., USA), and the one-way ANOVA with a subsequent Dunnettovým post-hoc test. The difference in food intake between mice injected with saline and mice injected with the examined peptide were considered statistically significant at P<0.05.
For `CCCCCCCCCCCCCC(=O)N[C@@H](CO)C(=O)N[C@@H](CCCNC(=N)N)C(=O)N[C@@H](C)C(=O)N[C@@H](Cc1c[nH]cn1)C(=O)N[C@@H](CCC(N)=O)C(=O)N[C@@H](Cc1c[nH]cn1)C(=O)N[C@@H](CO)C(=O)N[C@@H](CCCC)C(=O)N[C@@H](CCC(=O)O)C(=O)N[C@H](C(=O)N[C@@H](CCCNC(=N)N)C(=O)N[C@H](C(=O)N1CCC[C@H]1C(=O)N[C@@H](CC(=O)O)C(=O)N[C@H](C(=O)N[C@@H](CC(N)=O)C(=O)N1CCC[C@H]1C(=O)N[C@@H](C)C(=O)N[C@@H](Cc1c[nH]c2ccccc12)C(=O)N[C@@H](Cc1ccc(O)cc1)C(=O)N[C@H](C(=O)NCC(=O)N[C@@H](CCCNC(=N)N)C(=O)NCC(=O)N[C@H](C(=O)N[C@@H](CCCNC(=N)N)C(=O)N1CCC[C@H]1C(=O)N[C@H](C(=O)NCC(=O)N[C@@H](CCCNC(=N)N)C(=O)N[C@@H](Cc1ccccc1)C(N)=O)C(C)C)[C@@H](C)CC)[C@@H](C)O)[C@@H](C)CC)[C@@H](C)O)[C@@H](C)O` [Analog 18] (Myristoyl-SRAHQHS[Nle]ETRTPDINPAWYTGRGIRPVGRF-NH2), the “Food intake in mice (5 mg/kg SC) % saline-treated group (45 min)” value was found to be 3%.

The target in a further test is T1, rat PrRP receptor in RC-4B/C cells (rat, UniProt Q64121 1-370).
T1 construct: whole, on cells; also called the rat receptor; GPR10
T1 sequence (looked up): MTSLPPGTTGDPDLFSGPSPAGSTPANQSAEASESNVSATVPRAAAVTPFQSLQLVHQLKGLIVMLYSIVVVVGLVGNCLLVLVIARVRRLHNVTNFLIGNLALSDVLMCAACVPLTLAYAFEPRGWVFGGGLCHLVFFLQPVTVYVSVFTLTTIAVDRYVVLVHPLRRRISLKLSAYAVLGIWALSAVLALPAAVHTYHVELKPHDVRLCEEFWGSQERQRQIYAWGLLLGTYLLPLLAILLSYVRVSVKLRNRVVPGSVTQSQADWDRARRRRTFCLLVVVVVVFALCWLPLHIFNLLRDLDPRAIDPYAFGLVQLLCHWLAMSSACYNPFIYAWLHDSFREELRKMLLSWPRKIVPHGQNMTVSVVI
As to the kind of experiment: competition with 125I-rat PrRP31 on RC-4B/C cells.
Conditions: not given
The procedure: The rat pituitary cell line RC-4B/C (ATCC, Manassas, USA) was grown on 24-well plates which had their bottom coated with polyethyleneimine. The cells were grown to the optimal density of 300-450 thousand per well.
(§1) Plates were incubated for 60 minutes at room temperature. After incubation, the cells were solubilized in 0.1 mol/l solution of NaOH and the radioactivity bound to the cells was counted using a γ-counter. The experiments were performed in duplicate and repeated at least three times.
For evaluation of competitive binding experiments, the program Graph Pad Prism Software (San Diego, Calif., USA) was used. A method of nonlinear regression assuming one-site binding was used.
In the case of B1, the Ki was 0.00238 µM.
In the case of B2, the Ki was determined as 0.00028 µM. This Ki lies about 8.5-fold lower than the previous one.
Same read-out and setting: the same measure for B3: 0.364 µM.
B4 returned a Ki of 0.00075 µM.
On to B5, for which the Ki was determined as 0.00041 µM.
In turn, B6 had a Ki of 0.00095 µM.
B7 displayed a Ki of 1320 µM.

Another test addresses T2, human PrRP receptor, GPR10, transfected in CHO cells (human, UniProt P49683 1-370).
T2 construct: whole, on cells; also called human GPR10 receptor; the human receptor GPR10 in CHO cells
T2 sequence (looked up): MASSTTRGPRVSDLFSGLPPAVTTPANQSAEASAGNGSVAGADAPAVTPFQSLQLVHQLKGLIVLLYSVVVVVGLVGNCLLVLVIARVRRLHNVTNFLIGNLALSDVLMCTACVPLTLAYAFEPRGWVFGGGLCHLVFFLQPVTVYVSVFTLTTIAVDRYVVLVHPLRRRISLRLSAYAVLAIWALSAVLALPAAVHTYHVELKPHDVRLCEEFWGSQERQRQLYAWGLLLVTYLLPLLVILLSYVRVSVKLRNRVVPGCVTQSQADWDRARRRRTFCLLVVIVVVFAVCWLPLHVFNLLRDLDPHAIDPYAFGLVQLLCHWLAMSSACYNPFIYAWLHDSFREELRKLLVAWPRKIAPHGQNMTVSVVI
As to the kind of experiment: competition with 125I-human PrRP31 on CHO cells with transfected human GPR10.
Conditions: not given
The protocol: CHO cells with transfected human PrRP receptor, GPR10 (Perkin Elmer, USA) were grown on 24-well plates coated with polyethyleneimine. The cells were grown to the optimal density of 40-80 thousand cells per well.
as §1
Molecule B8 registered a Ki of 0.00241 µM.
On the same count and under the same terms, the same measure for B9: 0.00302 µM.

As a reminder, the Ki is a measure of affinity in units of concentration, obtained from inhibition or displacement. Lower therefore signals a stronger hold on the target.
